Measured values as given in US20240368233A1 (University of Washington, published 2024).
Values joined by “and” are separate entries in the source; they are usually repeats but may differ in a detail not shown here. Identical values can stand only once.

How the values were obtained:
[1] = target: T1, DF206; assay: SEC of mixed components; trimer listed in Table 6
T1 construct: Bivalent connector
T1 chain: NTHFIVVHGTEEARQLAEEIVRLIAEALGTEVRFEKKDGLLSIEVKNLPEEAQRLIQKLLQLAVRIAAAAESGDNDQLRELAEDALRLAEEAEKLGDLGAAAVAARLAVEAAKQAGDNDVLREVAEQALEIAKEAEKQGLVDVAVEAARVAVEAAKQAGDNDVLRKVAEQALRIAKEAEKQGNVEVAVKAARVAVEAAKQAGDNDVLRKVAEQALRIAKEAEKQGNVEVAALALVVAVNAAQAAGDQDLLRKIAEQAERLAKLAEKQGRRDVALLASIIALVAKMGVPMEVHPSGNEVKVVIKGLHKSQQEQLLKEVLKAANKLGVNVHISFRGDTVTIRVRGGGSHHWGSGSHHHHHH

[2] = target: T2, 206B62-2; assay: SEC binding assay (Superdex 200, normalised A230) of A, B and the mixture AB
T2 chain: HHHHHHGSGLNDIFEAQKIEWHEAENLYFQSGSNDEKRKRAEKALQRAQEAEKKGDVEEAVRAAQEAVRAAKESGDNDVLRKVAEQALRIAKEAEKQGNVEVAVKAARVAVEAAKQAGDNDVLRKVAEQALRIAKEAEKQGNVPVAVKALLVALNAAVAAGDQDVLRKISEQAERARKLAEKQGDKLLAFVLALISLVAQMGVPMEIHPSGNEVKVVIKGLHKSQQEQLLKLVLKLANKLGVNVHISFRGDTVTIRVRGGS
Experimental: (§1) Complexes and individual components were diluted in 20 mM Tris pH 8.0, 100 mM NaCl. After o/n equilibration of the mixtures at room temperature or 4 degrees C., 500 ul of sample was injected onto a Superdex™ 200 10/300 increase GL (dimers, linear assemblies) or Superose™ 6 increase 10/300 GL (symmetric assemblies) (all columns from GE healthcare) using the absorbance at 230 nm or 473 nm (for GFP tagged components) as read-out. Dimers were mixed at monomer concentrations of 5 μM or higher. Trimer and ABCD tetramer mixtures contained 5 μM of the bivalent connector, and 7.5 μM of each terminal cap (lower absolute concentrations with the same ratios were used for some trimers). ABCA tetramer mixtures contained 5 μM per bivalent connector and 15 μM terminal cap. The hexamer mixture contained 3 μM of components C and D, 3.6 μM of B and E, and 4.4 μM of A and F. The branched assembly shown in FIG. 4A contained 2.8 μM of the trivalent connector and 4 μM of each cap. For the exchange experiment shown in FIG. 5A, the ABC trimer was preincubated at concentrations of 6 μM B and 9 μM each of A and C. C′ was then added to reach a final concentration of 2 μM B, 3 μM each of A and C, and 6 μM C′.

[3] = target: T3, LHD206 B62-1; assay: as above
T3 single chain, LHD206 chain B fused to DHR62: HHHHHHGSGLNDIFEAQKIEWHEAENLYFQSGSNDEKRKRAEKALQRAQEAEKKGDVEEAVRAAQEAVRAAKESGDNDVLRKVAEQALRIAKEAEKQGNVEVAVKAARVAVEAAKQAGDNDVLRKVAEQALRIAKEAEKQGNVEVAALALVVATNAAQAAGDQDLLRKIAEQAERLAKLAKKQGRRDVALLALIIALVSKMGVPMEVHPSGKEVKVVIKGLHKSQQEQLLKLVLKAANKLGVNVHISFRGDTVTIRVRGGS
Experimental: as §1

[4] = target: T4, LHD101 chainA, split luciferase reporter construct; assay: split luciferase equilibrium titration in E. coli lysate, constant partner at 1 nM; first-named construct read as the titrated one; no unit beside the number, M from the axis '[Titrated] / M'
T4 construct: not shown: N-terminal Strep-tag and sfGFP; GS-linker and smBiT or lgBiT
T4 chain: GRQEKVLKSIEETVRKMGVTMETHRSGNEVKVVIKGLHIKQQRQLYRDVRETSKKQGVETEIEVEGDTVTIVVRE

[5] = target: the molecule itself; assay: SEC titration of the protomer alone at several injection concentrations (Superdex 200, normalised A230); self-association
[6] = target: T5, LHD101 chainB; assay: BLI steady-state titration, biotinylated unfused LHD101B on a streptavidin sensor
T5 construct: also called LHD101B
T5 chain: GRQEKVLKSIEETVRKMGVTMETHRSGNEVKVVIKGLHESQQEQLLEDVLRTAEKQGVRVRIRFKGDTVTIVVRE
Experimental: Biolayer interferometry experiments were performed on an OctetRED96 BLI system (ForteBio, Menlo Park, CA). Streptavidin coated biosensors were first equilibrated for at least 10 minutes in Octet buffer (10 mM HEPES pH 7.4, 150 mM NaCl, 3 mM EDTA, 0.05% Surfactant P20) supplemented with 1 mg/ml Bovine Serum Albumin (SigmaAldrich). Enzymatically biotinylated designs were immobilized onto the biosensors by dipping the biosensors into a solution with 10-50 nM protein for 30-120 s. This was followed by dipping in fresh octet buffer to establish a baseline for 120 s. Titration experiments were performed at 25° C. while rotating at 1,000 r.p.m. Association of designs was allowed by dipping biosensors in solutions containing designed protein diluted in octet buffer until equilibrium was approached followed by dissociation by dipping the biosensors into fresh buffer solution in order to monitor the dissociation kinetics. Steady-state and global kinetic fits were performed using the manufacturer's software (Data Analysis 9.1) assuming a 1:1 binding model.

[7] = target: T6, 101B62; assay: SEC binding assay (Superdex 200, normalised A230) of A, B and the mixture AB
T6 construct: also called LHD101B62
T6 chain: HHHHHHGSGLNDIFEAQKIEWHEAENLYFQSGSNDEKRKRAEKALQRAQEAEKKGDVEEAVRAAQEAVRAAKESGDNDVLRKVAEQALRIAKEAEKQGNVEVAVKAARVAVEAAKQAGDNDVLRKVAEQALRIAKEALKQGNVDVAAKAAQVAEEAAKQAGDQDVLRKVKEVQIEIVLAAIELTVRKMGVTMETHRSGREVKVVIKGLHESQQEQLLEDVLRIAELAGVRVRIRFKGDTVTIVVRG
Experimental: as §1

[8] = target: T7, 101B82; assay: as above
T7 chain: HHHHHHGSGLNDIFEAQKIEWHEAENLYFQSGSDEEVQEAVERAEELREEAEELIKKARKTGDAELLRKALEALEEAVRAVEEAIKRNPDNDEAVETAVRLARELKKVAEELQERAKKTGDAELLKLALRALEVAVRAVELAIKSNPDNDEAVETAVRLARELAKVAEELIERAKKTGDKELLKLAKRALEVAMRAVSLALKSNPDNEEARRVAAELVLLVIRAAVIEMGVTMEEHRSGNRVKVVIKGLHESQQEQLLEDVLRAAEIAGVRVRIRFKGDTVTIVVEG
Experimental: as §1

[9] = target: T8, 101B4; assay: as above
T8 construct: also called LHD101B4
T8 chain: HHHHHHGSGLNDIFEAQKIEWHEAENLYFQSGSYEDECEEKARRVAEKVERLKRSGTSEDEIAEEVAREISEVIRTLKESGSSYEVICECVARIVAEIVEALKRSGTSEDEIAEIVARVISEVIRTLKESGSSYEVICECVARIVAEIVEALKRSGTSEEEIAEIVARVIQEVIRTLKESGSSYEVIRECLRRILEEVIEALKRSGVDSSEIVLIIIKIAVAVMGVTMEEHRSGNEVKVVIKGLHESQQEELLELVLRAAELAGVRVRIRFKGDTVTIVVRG
Experimental: as §1

[10] = target: T9, 101B14; assay: as above
T9 construct: also called LHD101 B14
T9 single chain, LHD101 chain B fused to DHR14: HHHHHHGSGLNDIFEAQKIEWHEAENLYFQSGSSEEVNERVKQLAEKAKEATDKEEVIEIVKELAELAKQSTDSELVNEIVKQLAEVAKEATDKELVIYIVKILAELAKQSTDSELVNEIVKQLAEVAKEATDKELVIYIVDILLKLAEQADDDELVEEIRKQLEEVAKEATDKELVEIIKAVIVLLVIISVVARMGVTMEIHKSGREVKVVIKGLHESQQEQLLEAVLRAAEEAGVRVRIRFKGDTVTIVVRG
Experimental: as §1

[11] = target: T10, LHD101 B8; assay: as above
T10 single chain, LHD101 chain B fused to DHR8: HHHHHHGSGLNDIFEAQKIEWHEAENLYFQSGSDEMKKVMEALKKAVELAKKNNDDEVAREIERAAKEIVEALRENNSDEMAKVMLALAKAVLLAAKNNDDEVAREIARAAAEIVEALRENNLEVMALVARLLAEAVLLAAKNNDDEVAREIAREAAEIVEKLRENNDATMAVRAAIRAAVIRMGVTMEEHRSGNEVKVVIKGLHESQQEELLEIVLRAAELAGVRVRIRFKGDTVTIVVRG
Experimental: as §1

[12] = target: T11, 284B; assay: as above
T11 construct: also called LHD284 B; LHD284 chainB
T11 chain: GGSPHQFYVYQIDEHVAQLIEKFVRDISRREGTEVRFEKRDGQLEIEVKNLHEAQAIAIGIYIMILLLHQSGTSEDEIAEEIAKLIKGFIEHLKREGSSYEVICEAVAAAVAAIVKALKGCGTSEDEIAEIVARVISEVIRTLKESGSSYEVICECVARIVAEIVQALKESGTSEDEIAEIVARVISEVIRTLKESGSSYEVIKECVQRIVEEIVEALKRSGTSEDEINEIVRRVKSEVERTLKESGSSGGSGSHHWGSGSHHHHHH
Experimental: as §1

[13] = target: T12, 29B53; assay: SEC titration (Superdex 200, normalised A230) of the complexes 274A53/274B53 and 29A53/29B53
T12 construct: also called LHD29B53
T12 chain: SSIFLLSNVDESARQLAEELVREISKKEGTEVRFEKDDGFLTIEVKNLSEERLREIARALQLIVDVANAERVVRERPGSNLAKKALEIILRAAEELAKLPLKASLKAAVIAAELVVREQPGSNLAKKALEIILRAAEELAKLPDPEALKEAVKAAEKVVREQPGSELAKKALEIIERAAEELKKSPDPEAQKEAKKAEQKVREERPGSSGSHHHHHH

B1: 206A54 (designed binder)
chain: HHHHHHGSGLNDIFEAQKIEWHEAENLYFQSGSTEDERRELEKVARKAIEAAREGNTDEVREQLQRALEIARESGTTEAVKLALEVVARVAIEAARRGNTDAVREALEVALEIARESGTTEAVKLALEVVARVAIEAARRGNTDAVREALAVAVKIALKSGTEEAFRLAKEVIKRVSDEAKKQGNEDAVKEAESFDAAAELILSLLKLFRELHERGTEIVVEVHINGRKTEIEVQGIDKRLLQIILEVIIEEIAREGPDKVEVNVHSGGQTWTFRYGGS
Question: Does B1 bind [1]?
Answer: Result: binds

Question: Does B1 bind [2]?
Answer: Result: binds

Question: Does B1 bind [3]?
Answer: Result: binds

B2: LHD101 chainB, split luciferase reporter construct (designed binder)
chain: T5 chain
notes: not shown: N-terminal Strep-tag and sfGFP; GS-linker and smBiT or lgBiT
Question: B2 was tested. Which Kd [4] did it give?
Answer: Its Kd is 8 nM and 11 nM.

B3: 101A21 (designed binder)
chain: HHHHHHGSGLNDIFEAQKIEWHEAENLYFQSGSSEKEKVEELAQRIREQLPDTELAREAQELADEARKSDDSEALKVVYLALRIVQQLPDTELAREALELAKEAVKSTDSEKLKVVYLALRVVQQLPDTEEARKALEIAKEAVKADAQILLAIARAVLKMGVEMEVHPSGNEVKVVIKGLHIKQQRQLYRDVREAAKKAGVEVEIEVEGDTVTIVVRE
Question: Does B3 bind [5]?
Answer: Result: no binding

Question: Does B3 bind [6]?
Answer: Result: binds

Question: Does B3 bind [7]?
Answer: Result: binds

Question: Does B3 bind [8]?
Answer: Result: binds

Question: Does B3 bind [9]?
Answer: Result: binds

Question: Does B3 bind [10]?
Answer: Result: binds

Question: Does B3 bind [11]?
Answer: Result: binds

B4: 284A82 (designed binder)
chain: HHHHHHGSGLNDIFEAQKIEWHEAENLYFQSGSDEEVQEAVERAEELREEAEELIKKARKTGDAELLRKALEALEEAVRAVEEAIKRNPDNDEAVETAVRLARELKKVAEELQERAKKTGDAELLKLALRALEVAVRAVELAIKSNPDNDEAVETAVRLAKELLKVAILLAKRAQETGDKELEKLARRALEVAKRAVELAIKSNPDNKEARILKLLLELAELLIELALRGTIIIVEVHINGERQTKYLILAPVEELLKHLERIEEKIKREGASEVEVKVTSGGTTWTFNIKGS
notes: also called LHD284 A DHR82 N
Question: Does B4 bind [12]?
Answer: Result: binds

B5: 29A53 (designed binder)
chain: TWQWVLINISEEARQLIEKAVRAISKKEGTEVHFEKDDGVLHIRVKNLHEKRAREIHKVAKLILEVAAAERIVRERPGSNLAKKALEIILRAAEELAKADVDAALEAAVRAAEKVVREQPGSNLAKKALEIILRAAEELAKLPDPEALKEAVKAAEKVVREQPGSELAKKALEIIERAAEELKKSPDPEAQKEAKKAEQKVREERPGSSGSHHHHHH
notes: also called LHD29A53
Question: Does B5 bind [13]?
Answer: Result: binds

Question: Does B5 bind [5]?
Answer: Result: binds
